The data set in a line: soluble on expression in E. coli; label from the status in PepcDB or PDB records.
As for “MAKENPFTPFSDWTKHWQQFFQNDFWGSIQPLLPSSNKPSSGMNIYKKDNELLVVISLPGLEKIEDAEVYVSYKTLEVKATINLNFKGFELVEEGLFQGQFQKTIPLPFAVKEDRIEATYHNGLLFIHLHRLIPDEPKKKIVIKKSE”, the “soluble on expression in E. coli” value is reported as “not soluble”.
In the case of “MAKENPPIVFGPVLSRRFGKSLGVDLSPSKKQCNYNCIYCELGKAKPIERMEEVIKVETLINAIQNALNNLTTPIDVLTITANGEPTLYPHLLELIQSIKPFLKGVKTLILSNGSLFYEPKVQQALKEFDIVKFSLDAIDLKAFERVDKPYSKDINKILEGILRFSQIYQGQLVAEVLLIKGVNDSANNLKLIAAFLKQINIARVDLSTIDRPSSFKAPKLSEDELLKCSLFFEGLCVSLPKRSITQAKKLISCGIDELLALISRRPLSAEEAPLILDSNAFKHLETLLNHKQITIKKVGSLEFYCAFLEHHHHHH” it was “not soluble”; in that of “MAKHHPLTDWLPTSKKEMEAKGWDEADVILFSGDAYVDHPSFGAAVVGRILEAEGLRVAIVPQPNWRDDLRDFRKLGRPRLFFGVSAGAMDSMVNKYTANRRLRSEDAYTPDRRSDMRPDYPTIVYTRILKELFPDVPVIVGGIEASLRRLTHYDYWQDKLLPGILYQSGADLLIYGMGELPLHEIAQRLIAGEPFDSLKSIRQIAYLVPKGKTPVPCENDRHLFSHEECLSDKRKQAQNFREIEIQSNRYEADRILQAVGDSTIVVNPPFPPMSTAQIDQSFDLPYTRLPHPRYKGKIISAYEMIKHSVNVHRGCFGGCAFCTISAHQGKFIASRSEASVLREVKEITEMEDFKGYLSDVGGPSANMYKMQGYDLSICKRCKKPSCIHPNVCPNLNADHRPLLDLLRRIDKNPKIKKSFIGSGVRMDLLLHNYKDKVLKKAADEYTEDLIVKHVSGRLKVAPEHSSDRVLNLMRKPPFRQFAEFTKRFQRINEAHGLRQQLIPYFISSHPGCTEEDMAELAILTKKLDFKLEQIQDFTPTPMTLATEMYYTGYHPYTLQPVYTAIKKEEKMRQHMFFFWYKREEADKIRRELHRIGRPDLIAKLFDRTTSSRNDRHTPPSTQPRKSKSKSRHS”, “not soluble”.
As to “MAKIILRHLIEIPVRYQEEFEARGLEDCRLDHALYALPGPTIVDLRKTRAAQSPPVDSAAETPPREGKSHFQILLDVVQFLPEDIIIQTFEGWLLIKAQHGTRMDEHGFISRSFTRQYKLPDGVEIKDLSAVLCHDGILVVEVKDPVGTK”, the “soluble on expression in E. coli” value is reported as “soluble”.
As for “MAKILVFDEAARRALERGVNAVANAVKVTLGPRGRNVVLEKKFGSPTITKDGVTVAKEVELEDHLENIGAQLLKEVASKTNDVAGDGTTTATVLAQAIVREGLKNVAAGANPLALKRGIEKAVEAAVEKIKALAIPVEDRKAIEEVATISANDPEVGKLIADAMEKVGKEGIITVEESKSLETELKFVEGYQFDKGYISPYFVTNPETMEAVLEDAFILIVEKKVSNVRELLPILEQVAQTGKPLLIIAEDVEGEALATLVVNKLRGTLSVAAVKAPGFGDRRKEMLKDIAAVTGGTVISEELGFKLENATLSMLGRAERVRITKDETTIVGGKGKKEDIEARINGIKKELETTDSEYAREKLQERLAKLAGGVAVIRVGAATETELKEKKHRFEDALNATRAAVEEGIVPGGGVTLLRAISAVEELIKKLEGDEATGAKIVRRALEEPARQIAENAGYEGSVIVQQILAETKNPRYGFNAATGEFVDMVEAGIVDPAKVTRSALQNAASIGALILTTEAVVAEKPEKKESTPAFAGAGDMDF”, the “soluble on expression in E. coli” value is reported as “soluble”.
To “MAKKMKLSDITNMFAGMDVEALEGVTIEGDIEIDLGGLGGGFDPMLAAALGQESAVLAQHFARIAGMFGYPVGIGAPAAPAISPALAAPKLKDLIPAKFDVANIAEWATQIQEVPIGNTSADGGSRGKRVLVGGEKALPFFPDAPMPNRNQVTIDVFDMRIGLAKAVKENYDEVMDSPGEWAKKNVEKFNADMITIHLISTDPLVKDTPPKEAAKTVEEVLQAVDVPIAIGGSGNPQKDPEVLARAAEVAEGERCLLASASLNLDYAAIAEAALKYDHDVLSWTQLDMNAQKELNRKLMKQCNVPRDRIIMDPTTAALGYGLDYAYTNMERIRLAALMGDDELTFPMSSGTTNAWGARESWMVGSPLKEDSDWGPREYRGPIWEIVTGLSLAIAGNDLFMMMHPTSVAVLKQITQTLFGTIDTEQVDIANWIGAEV” belongs “not soluble”; to “MAKKTSSKGKLPPGPTPFPIIGNILQIDAKDISKSLTKFSECYGPVFTVYLGMKPTVVLHGYEAVKEALVDLGEEFAGRGSVPILEKVSKGLGIAFSNAKTWKEMRRFSLMTLRNFGMGKRSIEDRIQEEARCLVEELRKTNASPCDPTFILGCAPCNVICSVIFHNRFDYKDEEFLKLMESLHENVELLGTPWLQVYNNFPALLDYFPGIHKTLLKNADYIKNFIMEKVKEHQKLLDVNNPRDFIDCFLIKMEQENNLEFTLESLVIAVSDLFGAGTETTSTTLRYSLLLLLKHPEVAARVQEEIERVIGRHRSPCMQDRSRMPYTDAVIHEIQRFIDLLPTNLPHAVTRDVRFRNYFIPKGTDIITSLTSVLHDEKAFPNPKVFDPGHFLDESGNFKKSDYFMPFSAGKRMCVGEGLARMELFLFLTSILQNFKLQSLVEPKDLDITAVVNGFVSVPPSYQLCFIPIHHHH”, “soluble”.
In the case of “MAKKVAAQIKLQLPAGKATPAPPVGPALGQHGVNIMEFCKRFNAETADKAGMILPVVITVYEDKSFTFIIKTPPASFLLKKAAGIEKGSSEPKRKIVGKVTRKQIEEIAKTKMPDLNANSLEAAMKIIEGTAKSMGIEVVD” it was “soluble”; in that of “MAKPPPGKSSGRGSINDDEGKIEVESGDIPHVTDTEIKDAAEKVRETAVSKGKSERDKAEGDYTIMNPDSMIRPDFASDEEIEEQAKWIPGRFEPYITPNPLDIETLVKRADTIATVFNCSGNNLTDSRLSGAYEIAMTRSDEWEGKAGENFEKYMASLPTIMGNHGKVANMLQIEAQKMIELYKNRRKGAKDIADQAVKAIEAIDDSKGEGLE”, “not soluble”; in that of “MAKRLSKQQLAKAIANTLETPPQPKAGRRRNRRRQRSAVQQLQPTQAGISMAASAQGAMVRIRNPAVSSSRGGITVLTHSELSAEIGVTDSIVVSSELVMPYTVGTWLRGVAANWSKYSWLSVRYTYIPSCPSSTAGSIHMGFQYDMADTVPVSVNQLSNLRGYVSGQVWSGSAGLCFINGTRCSDTSTAISTTLDVSKLGKKWYPYKTSADYATAVGVDVNIATPLVPARLVIALLDGSSSTAVAAGRIYCTYTIQMIEPTASALNN”, “soluble”.
Consider “MAKSEEIIRERYKVMAPRIIKALNQRNFEAYFCETSEKAVECALSLIPQGASVAWGGSMTLEEIGLIQRLKEGNYQVIDRDTAKSQEERFSLMRQALLSDVYLASVNAMSEDGIMVNIDGRGNRISAIAFGPKTVILVVGMNKICRDLESARKRAHTYAAPNNALRLGLELPCTKTGCCFDCNKNNPSSICAQIVEMHSSIVPGRIKVILVGENLGL”, for which the “soluble on expression in E. coli” value is recorded as “soluble”.
With “MAKSYDYQSAFDIIGPVMMGPSSSHTAGAVKIGNSARAILGDIPKNIEIHYYESFAQTHQGHGTDVAIVGGAMGYSTFDNRIKSSLEIAADDGIKIDIIEEEGDSIGQHPNCAYIKSSRNDGRYIEIIGISIGGGTIKIKGIHINGLEVDLNHGLPILVVDGNMTKAQVNHFINDINDMKLDCKDEFIKIDEDKCLVVIPLNKAISESTLNTIKEKYSDVNVSYIN”, the “soluble on expression in E. coli” value was “not soluble”.
With “MAKVIRNRWVYRTDNKWTRYLPRRNDAVKEFDYDKNGASLKHYTEEISEEMRPKQASKLWMAWLYRDTSAEPKWTKKHVENLFGADFKVGRMEVFRNTELINTELWKIKHLIELRPVEFKNGVEPTEDDIFSTSLAPNGQCEVIQGGHVASENDLKLADGKQWTRKELGRDLNKKYHLYQSVYEQNVHTPNNITVVK”, the “soluble on expression in E. coli” value is recorded as “not soluble”.
Regarding “MAKYFGTDGIRGEVANSTITVEFTQKLGNAVGSLINQKNYPKFVIVGQDTRSSGGFLKFALVSGLNAAGIDVLDLGVVPTPVVAFMTVKHRAAAGFVITASHNKFTDNGIKLFSSNGFKLDDALEEEVEDMIDGDFIYQPQFKFGSYKILANAIDEYIESIYSRFAKFVNYKGKVVVDCAHGAASHNFEALLDKFGINYVSIASNPDGLNINVGCGATCVSNIKKAVKEQKADLGISLDGDADRIIIVDENGQEIDGDGILNILAQYSDICGGTNGIVGTQMTNMSYENHYRANKIPFIRSKVGDRYVLEDLVKYGYKIGGESSGHVINLNFGTTGDGLFTAIQLLAIFSQADKPVSEFKLQGELMQQTLINVPLTKKVAREDLQKVASDVNDVEKRLGNRGRVLLRPSGTEPVLRVMVEADDKSLATNEAEYLVEKVKQKLV”, the “soluble on expression in E. coli” value is given as “soluble”.
